The results in this text go back to publication PMC10189407 (The Journal of Biological Chemistry, 2023).

The experiment addresses Aβ(1–28) (Homo sapiens (assumed), UniProt P05067). The experiment in a line: SPR. (In general: In SPR one partner is held on a chip, and binding of the other changes the refractive index at the surface.)

Sequence of Aβ(1–28) (P05067 672-699): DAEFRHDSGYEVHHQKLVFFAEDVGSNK

B1: crenezumab G33S(HC)-NEP fusion, IgG-CTF-2 format (antibody, V domains shown)
VH: EVQLVESGGGLVQPGGSLRLSCAASGFTFSSYSMSWVRQAPGKGLELVASINSNGGSTYYPDSVKGRFTISRDNAKNSLYLQMNSLRAEDTAVYYCASGDYWGQGTTVTVSS
VL: DIVMTQSPLSLPVTPGEPASISCRSSQSLVYSNGDTYLHWYLQKPGQSPQLLIYKVSNRFSGVPDRFSGSGSGTDFTLKISRVEAEDVGVYYCSQSTHVPWTFGQGTKVEIK
For B1, the binding result is “binds”.

B2: crenezumab G33S(HC)/S56F(LC)-NEP fusion, IgG-CTF-2 format (antibody, V domains shown)
VH: EVQLVESGGGLVQPGGSLRLSCAASGFTFSSYSMSWVRQAPGKGLELVASINSNGGSTYYPDSVKGRFTISRDNAKNSLYLQMNSLRAEDTAVYYCASGDYWGQGTTVTVSS
VL: DIVMTQSPLSLPVTPGEPASISCRSSQSLVYSNGDTYLHWYLQKPGQSPQLLIYKVSNRFFGVPDRFSGSGSGTDFTLKISRVEAEDVGVYYCSQSTHVPWTFGQGTKVEIK
For the molecule B2, the binding result is “binds”.
